Reference: patent US20260062464A1

Assays:
[1] = target: recombinant N2 neuraminidase of A/Wisconsin/67/2005 (H3N2) (Influenza A virus A/Wisconsin/67/2005 (H3N2)); assay: ELISA on plate-coated recombinant NA, absorbance 450 nm
[2] = target: recombinant N2 neuraminidase of A/Wisconsin/67/2005 (H3N2) (Influenza A virus A/Wisconsin/67/2005 (H3N2)); assay: BLI, NA on biosensor, Fab in solution, 1:1 fit
[3] = target: recombinant N2 neuraminidase of A/Moscow/10/1999 (H3N2) (Influenza A virus A/Moscow/10/1999 (H3N2)); assay: BLI, NA on biosensor, Fab in solution, 1:1 fit

Binder	EC50 (read off the curve) [1]	Kd [2]	koff [2]	kon [2]	Kd [3]	koff [3]	kon [3]
NDS.6 monoclonal antibody (antibody, V domains shown) VH: QVQLVQSGPEVKKPGASVKVSCKASGYNFNRYGLTWVRQAPGQGLEWMGWISTYNSDTIYAREFRGRVTLTTDTSTRTAYMELRSLISADTAVYYCARDNVEEAFPISYYFDHWGQGTLVSVSS VL: QSALTQPRSVSGSPGQSVTISCTGTSSDVGLYNYVSWYQHHPGKAPKFLIYDVTKRPSGVPDRFSGSKSGNTASLTISGLQAEDEADYYCCSYVGSYILVFGGGTKVTVL	0.2 µg/mL	–	–	–	–	–	–
NDS.5 monoclonal antibody (antibody, V domains shown) VH: QLRLQESGPGLVKPSETLSLTCTVSGGSITSSPYYWGWIRQPPGKGLEWIGSIYYSGSTYYNPSLRSRVTISLDTSMNQFSLKLSSVTAADTAVYYCAEEYYDFWRTQDWGQGTLVTVSS VL: EIVLTQSPGTLSLSPGERATISCRASQSVSGRNLAWYQQKPGQAPRLLIYAASNRATGIPDRFSGSGSGTDFTLTISRLEPEDFAVYYCQQYGTSKTFGQGTKVEIK	0.05 µg/mL	–	–	–	–	–	–
Fab of NDS.1 (Fab, V domains shown) VH: QVQLRQWGAGLLKPSETLSLTCDVYGGSFNFYFWTWIRQPPGKGLEWLGEITHSGSATYIPSLKSRVTLSVDTSKGQFSLKLTSVNVADTAVYYCAGLPIDYDTVHLGYYPMDVWGQGTPVTVSS VL: DIQMTQSPSSLSASVGDRVTITCRASQGIRNYLAWYQQKPGKVPKLLIYGASTLQSGVPSRFSGSGSGTDFSLTISSLQPEDIATYFCQEYNNAPRTFGQGTKVEIK	–	75.6 nM	0.00431 s⁻¹	57000 M⁻¹ s⁻¹	0.217 nM	1.16e-05 s⁻¹	53300 M⁻¹ s⁻¹
Fab of NDS.1.1 (Fab, V domains shown) VH: QVQIQQWGAGLLKPSDTLSLTCSVYGGSFNFYYWTWVRQPPGKGLEWLAEINHSGSINYIPSLNSRVALSVDTSKGQFSLRLSSVTAADTAVYYCTGVPIDYESLHLGYYPMDVWGQGTPVIVSS VL: DIQMTQSPSSLSASVGDRVTITCRASQGISNYLAWWQQKPGQVPKLLIYAASTLQSGVPSRFSGSGSGTDFSLTISSLQPDDVAIYYCQKYNSAPRTFGQGTKVEIK	–	136 nM	0.00565 s⁻¹	41500 M⁻¹ s⁻¹	8.31 nM	0.000187 s⁻¹	22500 M⁻¹ s⁻¹
Fab of NDS.3 (Fab, V domains shown) VH: EVQLVESGGGLVKPGGSLRLSCAASGFTFSDYSMTWIRQIPGKGLEWLSYTTSSGRPIFYADSVKGRFTMSRDNAKMSVYLQMNSLRDADSAVYYCARGDPHYIWGTYLDSWGPGTLVTVSS VL: QSALTQPPSASGSPGQSVTISCTGTTSDFGDHNYVSWYQQRPGEAPKLIIYDVSKRPSGVPDRFSGSKSGNTASLTVSRLQADDEANYYCSSIEGSNTLLFGGGTKLTVL	–	60.9 nM	0.00527 s⁻¹	86500 M⁻¹ s⁻¹	18.9 nM	0.000517 s⁻¹	27400 M⁻¹ s⁻¹
